Experimental findings from patent publication US20120027757A1 are described below.

Test [1] has as its target IR (insulin receptor) expressed on Sf9 insect cells infected with baculovirus (UniProt P06213). The experiment in a line: flow cytometry on Sf9 insect cells expressing IR.
Test [2] addresses IGF-IR expressed on Sf9 insect cells infected with baculovirus (UniProt P08069). The experiment in a line: flow cytometry on Sf9 insect cells expressing IGF-IR. (In flow cytometry, cells or beads pass a laser one at a time.)

As to Anti-IGF-IR (αIR3) (antibody), the MFI (Mean fluorescence intensity) in test [1] was determined as 32; in test [2], 35.
